Earlier results as cited in publication PMC3977038.

Target: FcεRIα (Homo sapiens) (UniProt P12319)
Sequence (P12319 26-257): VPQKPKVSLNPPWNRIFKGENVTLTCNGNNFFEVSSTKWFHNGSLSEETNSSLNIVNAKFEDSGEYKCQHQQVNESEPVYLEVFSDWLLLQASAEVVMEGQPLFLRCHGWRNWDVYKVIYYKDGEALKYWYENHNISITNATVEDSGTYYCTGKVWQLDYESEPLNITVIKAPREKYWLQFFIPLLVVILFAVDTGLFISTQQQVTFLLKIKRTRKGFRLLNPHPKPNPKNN

Chain of IgE-Fc Fc (P01854 105-426): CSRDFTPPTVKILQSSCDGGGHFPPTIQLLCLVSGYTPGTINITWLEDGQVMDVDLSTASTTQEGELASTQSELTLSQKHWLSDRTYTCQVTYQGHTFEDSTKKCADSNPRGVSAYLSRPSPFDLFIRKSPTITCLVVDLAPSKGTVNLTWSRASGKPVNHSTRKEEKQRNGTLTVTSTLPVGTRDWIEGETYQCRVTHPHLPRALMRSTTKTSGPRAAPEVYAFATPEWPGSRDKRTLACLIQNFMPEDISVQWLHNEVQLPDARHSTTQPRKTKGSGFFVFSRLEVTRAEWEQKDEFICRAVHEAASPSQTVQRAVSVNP

IgE-Fc Fc (from UniProt P01854)
Kd: 0.1 nM
